In article PMC10350030 (bioRxiv, 2023):

Target: biotin-Aβ42 (UniProt P05067 672-713, biotin (site not stated))
Test: single-molecule TIRF microscopy

Chain of biotin-Aβ42 (P05067 672-713): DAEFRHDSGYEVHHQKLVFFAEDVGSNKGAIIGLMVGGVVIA

B1: Cy3-labeled ceruloplasmin (enzyme, human, UniProt P00450 20-1065, looked up)
chain: KEKHYYIGIIETTWDYASDHGEKKLISVDTEHSNIYLQNGPDRIGRLYKKALYLQYTDETFRTTIEKPVWLGFLGPIIKAETGDKVYVHLKNLASRPYTFHSHGITYYKEHEGAIYPDNTTDFQRADDKVYPGEQYTYMLLATEEQSPGEGDGNCVTRIYHSHIDAPKDIASGLIGPLIICKKDSLDKEKEKHIDREFVVMFSVVDENFSWYLEDNIKTYCSEPEKVDKDNEDFQESNRMYSVNGYTFGSLPGLSMCAEDRVKWYLFGMGNEVDVHAAFFHGQALTNKNYRIDTINLFPATLFDAYMVAQNPGEWMLSCQNLNHLKAGLQAFFQVQECNKSSSKDNIRGKHVRHYYIAAEEIIWNYAPSGIDIFTKENLTAPGSDSAVFFEQGTTRIGGSYKKLVYREYTDASFTNRKERGPEEEHLGILGPVIWAEVGDTIRVTFHNKGAYPLSIEPIGVRFNKNNEGTYYSPNYNPQSRSVPPSASHVAPTETFTYEWTVPKEVGPTNADPVCLAKMYYSAVEPTKDIFTGLIGPMKICKKGSLHANGRQKDVDKEFYLFPTVFDENESLLLEDNIRMFTTAPDQVDKEDEDFQESNKMHSMNGFMYGNQPGLTMCKGDSVVWYLFSAGNEADVHGIYFSGNTYLWRGERRDTANLFPQTSLTLHMWPDTEGTFNVECLTTDHYTGGMKQKYTVNQCRRQSEDSTFYLGERTYYIAAVEVEWDYSPQREWEKELHHLQEQNVSNAFLDKGEFYIGSKYKKVVYRQYTDSTFRVPVERKAEEEHLGILGPQLHADVGDKVKIIFKNMATRPYSIHAHGVQTESSTVTPTLPGETLTYVWKIPERSGAGTEDSACIPWAYYSTVDQVKDLYSGLIGPLIVCRRPYLKVFNPRRKLEFALLFLVFDENESWYLDDNIKTYSDHPEKVNKDDEEFIESNKMHAINGRMFGNLQGLTMHVGDEVNWYLMGMGNEIDLHTVHFHGHSFQYKHRGVYSSDVFDIFPGTYQTLEMFPRTPGIWLLHCHVTDHIHAGMETTYTVLQNEDTKSG
modifications: Cy3 label (site not stated)
half-lifetime of transient binding: ~14.6 s
